# Data reported in publication PMC7025507.
# Biological target: hStau1^55 SSM/RBD5 construct (human)
# Experiment: SEC
substance,measurement,value
hStau1^55 SSM/RBD5 construct (domain or fragment),stoichiometry N,2
